# Laboratory results from US20110283945A1.
# Target: trypsin activity of mated D. melanogaster female hemolymph
# Assay: cell-based or functional assay
substance,measurement,value
"Bowman-Birk Inhibitor (BBI), trypsin/chymotrypsin inhibitor from soybeans (from UniProt P01055 40-110)",reduced cleavage of the trypsin substrate N-Bnz-R-pna by mated female hemolymph,78%
